Measurements: the supplement of paper PMC10567573

B1: KRT18 (parent)
chain: PQVRDWSHYFKIIEDLRAQIFANT
B2: STEAP1 (parent)
chain: LWKMKPRRNLEEDDYLHKDTGETS

Variants of: B1
Assay: protein stability index of a GFP-peptide fusion (GPS, HEK-293T) (PSI 1-6); higher = more stable
Details: c terminus: a fixed tail appended
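Note: lentivirally expressed fusions sorted by FACS into six bins by GFP to DsRed ratio, PSI derived from sequencing read proportions per bin multiplied by bin number.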

In order of rising protein stability index:
1. PQVRDWSHYFKIIEDLRAQIFANY  1.72
2. PQVRDWSHYFKIIEDLRAQIFANV  2.04
3. PQVRDWSHYFKIIEDLRAQIFANR  2.23
4. PQVRDWSHYFKIIEDLRAQIFANW  2.27
5. PQVRDWSHYFKIIEDLRAQIFANL  2.31
6. PQVRDWSHYFKIIEDLRAQIFANS  2.31
7. PQVRDWSHYFKIIEDLRAQIFANH  2.43
8. PQVRDWSHYFKIIEDLRAQIFANQ  2.47
9. PQVRDWSHYFKIIEDLRAQIFANG  2.5
10. PQVRDWSHYFKIIEDLRAQIFANK  2.53
11. PQVRDWSHYFKIIEDLRAQIFANI  2.6
12. PQVRDWSHYFKIIEDLRAQIFANN  2.74
13. PQVRDWSHYFKIIEDLRAQIFANM  2.81
14. PQVRDWSHYFKIIEDLRAQIFANP  2.84

Variants of: B2
Assay: as above
Details: c terminus: a fixed tail appended

In order of rising protein stability index:
1. LWKMWPRRNLEEDDYLHKDTGETS  2.86
2. LWIMKPRRNLEEDDYLHKDTGETS  2.86
3. LWKMKPRRNLEEDDYLHKFTGETS  3
4. LWKMKPRRNLYEDDYLHKDTGETS  3.09
5. LWKMKPRRNLEEDDYLHKDTWETS  3.15
6. LWKMKPRRNLWEDDYLHKDTGETS  3.22
7. LWFMKPRRNLEEDDYLHKDTGETS  3.31
8. LWKMKPRRNLEEDDYLHKVTGETS  3.43
9. LWKMKPRRNLEEDDYLHKSTGETS  3.48
10. LWCMKPRRNLEEDDYLHKDTGETS  3.49
11. LWKMKPRRNLEEDDYLHKDFGETS  3.51
12. LWKMKCRRNLEEDDYLHKDTGETS  3.52
13. LWKMKPFRNLEEDDYLHKDTGETS  3.55
14. LWKMKPRRNLEEDDYLHIDTGETS  3.58
15. LWKMKPRRNLEEDDILHKDTGETS  3.61
16. LWKMKPRRNLEEDDYLHKDTVETS  3.64
17. LWKMKPRRNLEIDDYLHKDTGETS  3.66
18. LWKMKPRRNLEEDDYLHKDTGRTS  3.69
19. LWKMKPRRNLELDDYLHKDTGETS  3.74
20. LWKMKPRRNLEHDDYLHKDTGETS  3.75
21. LWKMKPRCNLEEDDYLHKDTGETS  3.79
22. LWYMKPRRNLEEDDYLHKDTGETS  3.81
23. LWKMKPRRCLEEDDYLHKDTGETS  3.81
24. LWKMKPRRNLIEDDYLHKDTGETS  3.82
25. LWKMKPRWNLEEDDYLHKDTGETS  3.82
26. LWKMKPRRNLEEDDYLHKDTGFTS  3.83
27. LWKMKPRRNLEEDDYLHKDTGKTS  3.83
28. LWKMKPRRNLEEDDYLHKTTGETS  3.83
29. LWKMKPRRNLEEDDYLHKHTGETS  3.83
30. LWKMKPRRNLEEFDYLHKDTGETS  3.83
31. LWKMKPRRNLEEDDYLHKDTGETQ  3.85
32. LWKMKPRRNLEESDYLHKDTGETS  3.85
33. LWKMKPRRNLEEVDYLHKDTGETS  3.87
34. LWKMKPRRNLEEHDYLHKDTGETS  3.88
35. LWKMKPRRNCEEDDYLHKDTGETS  3.9
36. LWKMKPRRNLGEDDYLHKDTGETS  3.93
37. LWKMAPRRNLEEDDYLHKDTGETS  3.93
38. LWKMKPYRNLEEDDYLHKDTGETS  3.94
39. LWKMKPRRNLEEDDYLHKATGETS  3.94
40. LWKMKVRRNLEEDDYLHKDTGETS  3.96
41. IWKMKPRRNLEEDDYLHKDTGETS  3.97
42. LWKMLPRRNLEEDDYLHKDTGETS  3.98
43. LWKMKPRRNLEEDDYLHKDTGEMS  3.99
44. LWKMKPRRNLEEDDYLHKDTGCTS  4
45. LWKMKHRRNLEEDDYLHKDTGETS  4
46. LWKMMPRRNLEEDDYLHKDTGETS  4
47. LWKMKPRYNLEEDDYLHKDTGETS  4.04
48. LWKMKPRRNLSEDDYLHKDTGETS  4.06
49. LWKMKPRRNLEADDYLHKDTGETS  4.06
50. LWKMKPRRFLEEDDYLHKDTGETS  4.06
51. LWKMKPRRNLERDDYLHKDTGETS  4.07
52. LWKMKPRVNLEEDDYLHKDTGETS  4.08
53. LWKMKPRRNLEEDDYLHKDTYETS  4.08
54. LWKMKPRRNLEVDDYLHKDTGETS  4.09
55. LWKMKPRRNYEEDDYLHKDTGETS  4.1
56. LWKMKPRRNLEEDDYLHKDTGETL  4.1
57. LWKMKPRRNLEEDDYLIKDTGETS  4.11
58. LWKMRPRRNLEEDDYLHKDTGETS  4.11
59. LWKMKPRRNLEEDDYLHKDTGETY  4.11
60. LWKMKPRRNLQEDDYLHKDTGETS  4.12
61. LWKMKPRRNLEEDDYLHKDLGETS  4.13
62. LWKMKPVRNLEEDDYLHKDTGETS  4.14
63. LWKMKPRRNLEEDDYYHKDTGETS  4.14
64. LWKMKPRRNLTEDDYLHKDTGETS  4.15
65. LWKMKPRRLLEEDDYLHKDTGETS  4.15
66. LWKMKPRRNLEEDDYLFKDTGETS  4.16
67. LWKMKPRRNLEGDDYLHKDTGETS  4.16
68. LWKMKPRRNLEEDDYLHKDTGETM  4.16
69. LWKMKPRRNLEEYDYLHKDTGETS  4.17
70. LWKMKPRRNLEEDHYLHKDTGETS  4.18
71. WWKMKPRRNLEEDDYLHKDTGETS  4.18
72. LWKMKPRRVLEEDDYLHKDTGETS  4.18
73. LWKMKPRRNLEEDDYLHKDSGETS  4.19
74. LWKMKPRRNLEEDDYWHKDTGETS  4.19
75. LWAMKPRRNLEEDDYLHKDTGETS  4.19
76. LWKMKPRRNLEEDDYPHKDTGETS  4.2
77. LWKMKPRRNLEEDDYLHKDTCETS  4.21
78. LWKMKPRRNHEEDDYLHKDTGETS  4.22
79. LWKMKPRRRLEEDDYLHKDTGETS  4.23
80. LWKMKPRRNFEEDDYLHKDTGETS  4.24
81. LWKMKPRRNREEDDYLHKDTGETS  4.24
82. LWKMKPRRNLEKDDYLHKDTGETS  4.25
83. LWKMKPRRNLEEDDYLHKDHGETS  4.26
84. LWKMKPRRNLEEDDYLHKDTGEGS  4.26
85. LWKMKPRRNLHEDDYLHKDTGETS  4.26
86. LWKMKPRRNMEEDDYLHKDTGETS  4.26
87. YWKMKPRRNLEEDDYLHKDTGETS  4.26
88. LWKCKPRRNLEEDDYLHKDTGETS  4.27
89. LWRMKPRRNLEEDDYLHKDTGETS  4.28
90. LWKMKPRRNLEEDDYLHMDTGETS  4.29
91. LWKMKPRRNLEEDDYLHKDTGETH  4.31
92. FWKMKPRRNLEEDDYLHKDTGETS  4.31
93. LWKMKPRRNLEEDQYLHKDTGETS  4.32
94. LWKMKPRRNLEEDDYLEKDTGETS  4.35
95. LWKMKPRRNLEENDYLHKDTGETS  4.35
96. LWKMKPRRNLEEDDYLHKDTNETS  4.36
97. LWKMKPRRNLEEDDYLHKDTGENS  4.37
98. LWKMKPRRNLEEDDYLHKDTGGTS  4.37
99. LWKMKPRRNLEEDDYLYKDTGETS  4.38
100. LWKMKPRRNLEEDDYLHKDTGETV  4.38
101. LWKMKPRRNLEEDDYLHKDAGETS  4.39
102. LWKMKPRRNLEEDDYLHKNTGETS  4.39
103. LWKMKPRRNNEEDDYLHKDTGETS  4.4
104. LWKMKPRRNLEEDNYLHKDTGETS  4.4
105. LWKMKPRRNLEEDDYLRKDTGETS  4.41
106. LWKYKPRRNLEEDDYLHKDTGETS  4.41
107. LWKMKPRRQLEEDDYLHKDTGETS  4.41
108. LWKMKPRRALEEDDYLHKDTGETS  4.41
109. LWKMKPRRNLEEKDYLHKDTGETS  4.43
110. LWKMKPRRNLEEDDYLHKDRGETS  4.44
111. LWKMKPRRKLEEDDYLHKDTGETS  4.44
112. LWKMKPRRNLEEDDYLHKGTGETS  4.45
113. LWKMKPRRNLEEDTYLHKDTGETS  4.46
114. LWKMKPERNLEEDDYLHKDTGETS  4.47
115. LWKMKPRRNLEEDDYLHPDTGETS  4.47
116. LWKMKPRTNLEEDDYLHKDTGETS  4.47
117. LWKRKPRRNLEEDDYLHKDTGETS  4.47
118. LWKMKPRRNLEEDDYLHKDTGERS  4.48
119. LWKMKPRRNKEEDDYLHKDTGETS  4.48
120. LWKMKPRRELEEDDYLHKDTGETS  4.49
121. LWKMKPRRNLEEDDYLGKDTGETS  4.5
122. LWKMGPRRNLEEDDYLHKDTGETS  4.5
123. LWKMKPRRNLEEDDYLHKDPGETS  4.51
124. LWKMKPMRNLEEDDYLHKDTGETS  4.51
125. LWKMKPRRNLEEDDYLHSDTGETS  4.53
126. LWKMKPRRNLEEDDRLHKDTGETS  4.53
127. LWHMKPRRNLEEDDYLHKDTGETS  4.54
128. LFKMKPRRNLEEDDYLHKDTGETS  4.55
129. LWKMKPRRNLEEDDNLHKDTGETS  4.57
130. LWKMKPRRNLEEDDYLHKDGGETS  4.58
131. LWKMKPRRNLKEDDYLHKDTGETS  4.58
132. LWKMKPRRNLEEDDYLHTDTGETS  4.6
133. LWKMKPRRNLEEDDYSHKDTGETS  4.6
134. LWKMKPRRNLEEDDYLHKDTGETT  4.6
135. LWKMKPRANLEEDDYLHKDTGETS  4.61
136. LWKTKPRRNLEEDDYLHKDTGETS  4.62
137. LWKMKPRRNLEEDDYLHKDTAETS  4.65
138. LWKMKPRRNLEEDDYLHKDTEETS  4.65
139. LWKMKPRRNLEEDDYLHKDTGETD  4.65
140. LWKMKPRRNLEEDDCLHKDTGETS  4.66
141. LWKMKPHRNLEEDDYLHKDTGETS  4.69
142. LWKMKPRRNLEEDDYLHDDTGETS  4.7
143. LWKMKPNRNLEEDDYLHKDTGETS  4.71
144. LWKMKPRRNLEEDDYLHKDTGETN  4.72
145. LWPMKPRRNLEEDDYLHKDTGETS  4.72
146. LWKMKPRRNLEEDDYTHKDTGETS  4.74
147. LWKMKPRRNLEEDDYAHKDTGETS  4.74
148. GWKMKPRRNLEEDDYLHKDTGETS  4.75
149. LWKMKPRRNLEEDDYLHKDTPETS  4.77
150. LKKMKPRRNLEEDDYLHKDTGETS  4.78
151. LWKMKPRRNLEEDDYEHKDTGETS  4.79
152. LWKMKPRRNLEEDDYLPKDTGETS  4.8
153. LWKMDPRRNLEEDDYLHKDTGETS  4.8
154. RWKMKPRRNLEEDDYLHKDTGETS  4.8
155. LWNMKPRRNLEEDDYLHKDTGETS  4.8
156. LRKMKPRRNLEEDDYLHKDTGETS  4.83
157. LWKMKPRRNLEEDDKLHKDTGETS  4.84
158. NWKMKPRRNLEEDDYLHKDTGETS  4.84
159. LWKMKPRRNLEEEDYLHKDTGETS  4.84
160. LWKMQPRRNLEEDDYLHKDTGETS  4.86
161. LWKMKPRRNLEEDDYLHEDTGETS  4.87
162. LWKMKPRRNDEEDDYLHKDTGETS  4.9
163. LWKEKPRRNLEEDDYLHKDTGETS  4.94
164. LGKMKPRRNLEEDDYLHKDTGETS  4.96
165. LLKMKPRRNLEEDDYLHKDTGETS  5
166. LWKMKPRRNLEEDDYLHKDTGEES  5.03
167. LWKMKPRRNSEEDDYLHKDTGETS  5.12
168. LWKMKERRNLEEDDYLHKDTGETS  5.13
169. LWKDKPRRNLEEDDYLHKDTGETS  5.16
170. LTKMKPRRNLEEDDYLHKDTGETS  5.22
171. LQKMKPRRNLEEDDYLHKDTGETS  5.31
172. LSKMKPRRNLEEDDYLHKDTGETS  5.48
173. LPKMKPRRNLEEDDYLHKDTGETS  5.49
174. LDKMKPRRNLEEDDYLHKDTGETS  5.62
